B1: Homeobox protein Meis2 (Homo sapiens), O14770-4 (parent)
chain: MAQRYDELPHYGGMDGVGVPASMYGDPHAPRPIPPVHHLNHGPPLHATQHYGAHAPHPNVMPASMGSAVNDALKRDKDAIYGHPLFPLLALVFEKCELATCTPREPGVAGGDVCSSDSFNEDIAVFAKQVRAEKPLFSSNPELDNLMIQAIQVLRFHLLELEKVHELCDNFCHRYISCLKGKMPIDLVIDERDGSSKSDHEELSGSSTNLADHNPSSWRDHDDATSTHSAGTPGPSSGGHASQSGDNSSEQGDGLDNSVASPGTGDDDDPDKDKKRQKKRGIFPKVATNIMRAWLFQHLTHPYPSEEQKKQLAQDTGLTILQVNNWFINARRRIVQPMIDQSNRAVSQGAAYSPEGQPMGSFVLDGQQHMGIRPAGLQSMPGDYVSQGGPMGMSMAQPSYTPPQMTPHPTQLRHGPPMHSYLPSHPHHPAMMMHGGPPTHPGMTMSAQSPTMLNSVDPNVGGQVMDIHAQ
partner: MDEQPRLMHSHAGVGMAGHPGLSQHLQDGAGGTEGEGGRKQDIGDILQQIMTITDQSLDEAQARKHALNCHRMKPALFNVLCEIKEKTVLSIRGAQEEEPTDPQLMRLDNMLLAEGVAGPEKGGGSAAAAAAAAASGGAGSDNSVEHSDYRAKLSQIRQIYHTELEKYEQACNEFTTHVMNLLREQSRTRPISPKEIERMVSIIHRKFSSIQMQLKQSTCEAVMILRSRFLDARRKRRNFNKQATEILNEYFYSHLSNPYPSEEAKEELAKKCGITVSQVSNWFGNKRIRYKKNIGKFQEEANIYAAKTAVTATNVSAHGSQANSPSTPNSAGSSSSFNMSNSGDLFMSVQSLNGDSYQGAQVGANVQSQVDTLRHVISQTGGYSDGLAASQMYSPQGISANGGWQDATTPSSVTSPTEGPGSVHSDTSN

Variants of: B1
Settings: with pbx1_human PBX1, P40424

| Variant | effect of a mutation on the interaction |
| --- | --- |
| MAQRYDELPHYGGMDGVGVPASMYGDPHAPRPIPPVHHLNHGPPLHATQHYGAHAPHPNVMPASMGSAVNDALKRDKDAIYGHPLFPLLALVFEKCELATCTPREPGVAGGDVCSSDSFNEDIAVFAKQVRAEKPLFSSNPELDNLMIQAIQVLRFHLLELEAVHELCDNFCHRYISCLKGKMPIDLVIDERDGSSKSDHEELSGSSTNLADHNPSSWRDHDDATSTHSAGTPGPSSGGHASQSGDNSSEQGDGLDNSVASPGTGDDDDPDKDKKRQKKRGIFPKVATNIMRAWLFQHLTHPYPSEEQKKQLAQDTGLTILQVNNWFINARRRIVQPMIDQSNRAVSQGAAYSPEGQPMGSFVLDGQQHMGIRPAGLQSMPGDYVSQGGPMGMSMAQPSYTPPQMTPHPTQLRHGPPMHSYLPSHPHHPAMMMHGGPPTHPGMTMSAQSPTMLNSVDPNVGGQVMDIHAQ [K163A] | decreasing interaction |
| MAQRYDELPHYGGMDGVGVPASMYGDPHAPRPIPPVHHLNHGPPLHATQHYGAHAPHPNVMPASMGSAVNDALKRDKDAIYGHPLFPLLALVFEKCELATCTPREPGVAGGDVCSSDSFNEDIAVFAKQVRAEKPLFSSNPELDNLMIQAIQVLRFHLLALEKVHELCDNFCHRYISCLKGKMPIDLVIDERDGSSKSDHEELSGSSTNLADHNPSSWRDHDDATSTHSAGTPGPSSGGHASQSGDNSSEQGDGLDNSVASPGTGDDDDPDKDKKRQKKRGIFPKVATNIMRAWLFQHLTHPYPSEEQKKQLAQDTGLTILQVNNWFINARRRIVQPMIDQSNRAVSQGAAYSPEGQPMGSFVLDGQQHMGIRPAGLQSMPGDYVSQGGPMGMSMAQPSYTPPQMTPHPTQLRHGPPMHSYLPSHPHHPAMMMHGGPPTHPGMTMSAQSPTMLNSVDPNVGGQVMDIHAQ [E160A] | decreasing interaction |

Variants of: B1
Settings: with pbx1_human PBX1, P40424
Remark: another data set of the same source

| Variant | effect of a mutation on the interaction |
| --- | --- |
| MAQRYDELPHYGGMDGVGVPASMYGDPHAPRPIPPVHHLNHGPPLHATQHYGAHAPHPNVMPASMGSAVNDALKRDKDAIYGHPLFPLLALVFEKCELATCTPREPGVAGGDVCSSDSFNEDIAVFAKQVRAEKPLFSSNPELDNLMIQAIQVLRFHLLEAEKVHELCDNFCHRYISCLKGKMPIDLVIDERDGSSKSDHEELSGSSTNLADHNPSSWRDHDDATSTHSAGTPGPSSGGHASQSGDNSSEQGDGLDNSVASPGTGDDDDPDKDKKRQKKRGIFPKVATNIMRAWLFQHLTHPYPSEEQKKQLAQDTGLTILQVNNWFINARRRIVQPMIDQSNRAVSQGAAYSPEGQPMGSFVLDGQQHMGIRPAGLQSMPGDYVSQGGPMGMSMAQPSYTPPQMTPHPTQLRHGPPMHSYLPSHPHHPAMMMHGGPPTHPGMTMSAQSPTMLNSVDPNVGGQVMDIHAQ [L161A] | decreasing interaction |

Variants of: B1
Settings: with pbx1_human PBX1, P40424
Remark: another data set of the same source

| Variant | effect of a mutation on the interaction |
| --- | --- |
| MAQRYDELPHYGGMDGVGVPASMYGDPHAPRPIPPVHHLNHGPPLHATQHYGAHAPHPNVMPASMGSAVNDALKRDKDAIYGHPLFPLLALVFNKCELATCTPREPGVAGGDVCSSDSFNEDIAVFAKQVRAEKPLFSSNPELDNLMIQAIQVLRFHLLELEKVHELCDNFCHRYISCLKGKMPIDLVIDERDGSSKSDHEELSGSSTNLADHNPSSWRDHDDATSTHSAGTPGPSSGGHASQSGDNSSEQGDGLDNSVASPGTGDDDDPDKDKKRQKKRGIFPKVATNIMRAWLFQHLTHPYPSEEQKKQLAQDTGLTILQVNNWFINARRRIVQPMIDQSNRAVSQGAAYSPEGQPMGSFVLDGQQHMGIRPAGLQSMPGDYVSQGGPMGMSMAQPSYTPPQMTPHPTQLRHGPPMHSYLPSHPHHPAMMMHGGPPTHPGMTMSAQSPTMLNSVDPNVGGQVMDIHAQ [E94N] | decreasing interaction |
| MAQRYDELPHYGGMDGVGVPASMYGDPHAPRPIPPVHHLNHGPPLHATQHYGAHAPHPNVMPASMGSAVNDALKRDKDAIYGHPLFPLLALVFEKCTLATCTPREPGVAGGDVCSSDSFNEDIAVFAKQVRAEKPLFSSNPELDNLMIQAIQVLRFHLLELEKVHELCDNFCHRYISCLKGKMPIDLVIDERDGSSKSDHEELSGSSTNLADHNPSSWRDHDDATSTHSAGTPGPSSGGHASQSGDNSSEQGDGLDNSVASPGTGDDDDPDKDKKRQKKRGIFPKVATNIMRAWLFQHLTHPYPSEEQKKQLAQDTGLTILQVNNWFINARRRIVQPMIDQSNRAVSQGAAYSPEGQPMGSFVLDGQQHMGIRPAGLQSMPGDYVSQGGPMGMSMAQPSYTPPQMTPHPTQLRHGPPMHSYLPSHPHHPAMMMHGGPPTHPGMTMSAQSPTMLNSVDPNVGGQVMDIHAQ [E97T] | decreasing interaction |
| MAQRYDELPHYGGMDGVGVPASMYGDPHAPRPIPPVHHLNHGPPLHATQHYGAHAPHPNVMPASMGSAVNDALKRDKDAIYGHPLFPLLALVFEKGELATCTPREPGVAGGDVCSSDSFNEDIAVFAKQVRAEKPLFSSNPELDNLMIQAIQVLRFHLLELEKVHELCDNFCHRYISCLKGKMPIDLVIDERDGSSKSDHEELSGSSTNLADHNPSSWRDHDDATSTHSAGTPGPSSGGHASQSGDNSSEQGDGLDNSVASPGTGDDDDPDKDKKRQKKRGIFPKVATNIMRAWLFQHLTHPYPSEEQKKQLAQDTGLTILQVNNWFINARRRIVQPMIDQSNRAVSQGAAYSPEGQPMGSFVLDGQQHMGIRPAGLQSMPGDYVSQGGPMGMSMAQPSYTPPQMTPHPTQLRHGPPMHSYLPSHPHHPAMMMHGGPPTHPGMTMSAQSPTMLNSVDPNVGGQVMDIHAQ [C96G] | decreasing interaction |

Variants of: B1
Settings: with pbx1_human PBX1, P40424
Remark: another data set of the same source

| Variant | effect of a mutation on the interaction |
| --- | --- |
| MAQRYDELPHYGGMDGVGVPASMYGDPHAPRPIPPVHHLNHGPPLHATQHYGAHAPHPNVMPASMGSAVNDALKRDKDAIYGHPAFPLLALVFEKCELATCTPREPGVAGGDVCSSDSFNEDIAVFAKQVRAEKPLFSSNPELDNLMIQAIQVLRFHLLELEKVHELCDNFCHRYISCLKGKMPIDLVIDERDGSSKSDHEELSGSSTNLADHNPSSWRDHDDATSTHSAGTPGPSSGGHASQSGDNSSEQGDGLDNSVASPGTGDDDDPDKDKKRQKKRGIFPKVATNIMRAWLFQHLTHPYPSEEQKKQLAQDTGLTILQVNNWFINARRRIVQPMIDQSNRAVSQGAAYSPEGQPMGSFVLDGQQHMGIRPAGLQSMPGDYVSQGGPMGMSMAQPSYTPPQMTPHPTQLRHGPPMHSYLPSHPHHPAMMMHGGPPTHPGMTMSAQSPTMLNSVDPNVGGQVMDIHAQ [L85A] | decreasing interaction |
